Results: PMC7661550, “A ‘Split-Gene’ Transketolase From the Hyper-Thermophilic Bacterium Carboxydothermus hydrogenoformans: Structure and Biochemical Characterization” (Frontiers in Microbiology, 2020)

What was measured:
[1] = substrate: O=CCO; assay: purified protein; type: biochemical, Carboxydothermus hydrogenoformans; settings: hydroxypyruvate 100 mM as ketol donor, TPP, CaCl2, 10 mM HEPES pH 7.2, 0.1 M NaCl, room temperature
[2] = target: the molecule itself; assay: crystal structure; reconstituted ChTK-F α2β2 with TPP and Ca2+, 2.1 M DL-malic acid pH 7.0, space group I222, 1.4 Å (PDB 6YAK); also a PEG 1500 crystal form at 2.1 Å
[3] = target: the molecule itself; assay: SEC; each protein alone on a calibrated Superdex 200 HiLoad 16/60 column, 10 mM HEPES, 0.1 M NaCl, pH 7.2; apparent molecular mass

| Protein | Km [1] [mM] | stoichiometry N [2] | stoichiometry N [3] |
| --- | --- | --- | --- |
| ChTK-F (Carboxydothermus hydrogenoformans Z-2901) (protein, two split-gene subunits (alpha ChTK-N, PP domain)) chain 1: MQDEILNLKLIANQLRQHVVKMVGEANSGHPGGSLSAADILAVLFFKEMRIDPANPKWQDRDRFVLSKGHASPVLYAALAERGFFPKEWLSQFRKINSPLQGHPDMKKVPGVEMSTGSLGQGFSTAVGMALGLKLDRSPARVYVLLGDGEIQEGIVWEAAMAAAHYKLNNLTAILDYNGLQIDGPVQEVMNPEPVADKWRSFGFKVITVDGHNIPEIINAIDAARLHLEGPTIIIAKTVKGKGVSFMENRVEWHGSAPKPEQVAEALSELQVGREKLWEE chain 2: MGGIATREAYGKALVELGQENPKIVVLDADLSKSTKTSDFAKAFPERFFNMGIAEQNLMGVAAGLSTVGKIPFASTFAVFAAGRAFEIIRNSICYPKLNVKIAATHAGLTVGEDGASHQAIEDLALMRVLPNMQVFVPADAAQTRAIVKKAAEIEGPVYIRLGRSGVPEVFSPDIRFEPGRGTVLKEGKDVTIVALGIMTAKALEAAKMLEAEGIAARVVDMASLKPIDRELLVESARLTGAVVTAEEHSVIGGLGSAVAEVLSEEYPIPVVKVGVNDVFGESGTPQALLEKYGLTARDVVAAVQKALTLKR | 41 ± 4 |  |  |
| ChTK-C, C-terminal 'split-gene' transketolase polypeptide (Pyr and C-terminal domains) of Carboxydothermus hydrogenoformans (natural protein, Carboxydothermus hydrogenoformans Z-2901, Pyr domain residues 1-162 and C-terminal domain residues 164-312; calculated mass of the His-tagged protein 33.2 kDa; chain D of PDB 6YAK, all chains of PDB 6YAJ; The gene was cloned into the LIC site of pLATE51; By gel filtration the free protein elutes as a tetramer; two copies stand in the α2β2 heterotetramer ChTK-F; also called β subunit of ChTK-F (α2β2); ChTK β4; source: E. coli BL21 DE3*, …) MGGIATREAYGKALVELGQENPKIVVLDADLSKSTKTSDFAKAFPERFFNMGIAEQNLMGVAAGLSTVGKIPFASTFAVFAAGRAFEIIRNSICYPKLNVKIAATHAGLTVGEDGASHQAIEDLALMRVLPNMQVFVPADAAQTRAIVKKAAEIEGPVYIRLGRSGVPEVFSPDIRFEPGRGTVLKEGKDVTIVALGIMTAKALEAAKMLEAEGIAARVVDMASLKPIDRELLVESARLTGAVVTAEEHSVIGGLGSAVAEVLSEEYPIPVVKVGVNDVFGESGTPQALLEKYGLTARDVVAAVQKALTLKR |  | 2 | 4 |
| ChTK-N, N-terminal 'split-gene' transketolase polypeptide (PP domain) of Carboxydothermus hydrogenoformans (natural protein, Carboxydothermus hydrogenoformans Z-2901, forms the PP domain; calculated mass of the His-tagged protein 31.0 kDa; chain A of PDB 6YAK; The gene was cloned into the LIC site of pLATE51; By gel filtration the free protein elutes as a dimer; two copies stand in the α2β2 heterotetramer ChTK-F; also called α subunit of ChTK-F (α2β2); source: E. coli BL21 DE3*, purified (heat treatment at 50°C, HisTrap/Ni-NTA, Superdex 200 gel filtration)) MQDEILNLKLIANQLRQHVVKMVGEANSGHPGGSLSAADILAVLFFKEMRIDPANPKWQDRDRFVLSKGHASPVLYAALAERGFFPKEWLSQFRKINSPLQGHPDMKKVPGVEMSTGSLGQGFSTAVGMALGLKLDRSPARVYVLLGDGEIQEGIVWEAAMAAAHYKLNNLTAILDYNGLQIDGPVQEVMNPEPVADKWRSFGFKVITVDGHNIPEIINAIDAARLHLEGPTIIIAKTVKGKGVSFMENRVEWHGSAPKPEQVAEALSELQVGREKLWEE |  |  | 2 |
